In patent US20240287156A1 (published 2024):

Key:
[1] = target: T1, MAGEA3 peptide on HLA-A*01:01 (human); test: cytokine release
T1 peptide: EVDPIGHLY
Protocol: (§1) FIG. 7. […] IFNγ release to the supernatant was measured by ELISA after 18 hours of coculture.

[2] = target: T2, MAGEA4 peptide on HLA-A*01:01 (human); test: cytokine release
T2 peptide: KEVDPASNTY
Protocol: as §1

[3] = target: T3, MAGEA4 peptide on HLA-A*01:01 (human); test: cytokine release
T3 peptide: WVQENYLEY
Protocol: as §1

[4] = target: T4, MAGEA4 peptide on HLA-A*01:01 (human); test: cytokine release
T4 peptide: LVTCLGLSY
Protocol: as §1

[5] = target: T5, titin peptide on HLA-A*01:01 (human); test: cytokine release
T5 peptide: ESDPIVAQY
Protocol: as §1

[6] = target: T6, MAGEA4 peptide on HLA-A*01:01 (human); test: cytokine release
T6 peptide: TQDWVQENY
Protocol: as §1

[7] = target: T7, MAGEA4 peptide on HLA-A*01:01 (human); test: cytokine release
T7 peptide: TTEEQEAAV
Protocol: as §1

[8] = target: T8, MAGEA4 peptide on HLA-A*01:01 (human); test: cytokine release
T8 peptide: ELAHFLLRKY
Protocol: as §1

[9] = target: T9, MAGEA4 peptide on HLA-A*01:01 (human); test: cytokine release
T9 peptide: DWVQENYLEY
Protocol: as §1

[10] = target: T10, MAGEA4 peptide on HLA-A*01:01 (human); test: cytokine release
T10 peptide: WVQENYLEYR
Protocol: as §1

[11] = target: T11, MAGEA4 peptide on HLA-A*01:01 (human); test: cytokine release
T11 peptide: TLVTCLGLSY
Protocol: as §1

[12] = target: T12, MAGEA4 peptide on HLA-A*01:01 (human); test: cytokine release
T12 peptide: EVDPASNTYT
Protocol: as §1

[13] = target: T13, MAGEA4 peptide on HLA-A*01:01 (human); test: cytokine release
T13 peptide: LTQDWVQENY
Protocol: as §1

[14] = target: T14, MAGEA4 peptide on HLA-A*01:01 (human); test: IFN-gamma ELISA after 18 h; 1x10^5 TCR-transduced T cells with 5x10^4 peptide-loaded K562-A*01:01; two donors pooled, non-linear regression; full-length, on cells
T14 peptide: EVDPASNTY
Protocol: FIG. 6. […] The results of two donors were pooled and normalized as percentage of max. The depicted EC50 value was calculated by non-linear regression.
To calculate the EC50 value, non-linear regression was used to create a dose-response curve (FIG. 6). […] The K562 cells express HLA-A*01:01.

B1: CTC-TCR127 (TCR)
alpha TRAV35*01 CDR3: AGQLWGGSNYKLT
beta TRBV5-1*01 CDR3: ASSLAGTGAHFITNEKLF
7.6 nM: EC50 of peptide [14]
no recognition: binding result [1] | binding result [3] | binding result [4] | binding result [5] | binding result [6] | binding result [7] | binding result [8] | binding result [9] | binding result [10] | binding result [11] | binding result [13]
recognises: binding result [2] | binding result [12]
